Assay results published in patent US20240376151A1, “STAPLED PEPTIDES AND METHODS THEREOF” (FOG PHARMACEUTICALS, INC., priority 2022, published 2024).
Numbered stars: 1 amine (or outer) side, 2 acyl side, 3 side chain; on linkers, the order of the positions; unused ones are H or OH. Bridge positions count the residues as written; N and C are the ends. Ends that are not written are not given here. Phenylene(1,4-NHCOCH2)2 = O=C(C[*:1])Nc1ccc(NC(=O)C[*:2])cc1

Target: T1, WWP2^HECT (Homo sapiens, UniProt O00308)
T1 construct: GST-TEV (N, cleaved yes); made in house; host or cells: Escherichia coli BL21 (DE3)
T1 sequence (O00308 492-865): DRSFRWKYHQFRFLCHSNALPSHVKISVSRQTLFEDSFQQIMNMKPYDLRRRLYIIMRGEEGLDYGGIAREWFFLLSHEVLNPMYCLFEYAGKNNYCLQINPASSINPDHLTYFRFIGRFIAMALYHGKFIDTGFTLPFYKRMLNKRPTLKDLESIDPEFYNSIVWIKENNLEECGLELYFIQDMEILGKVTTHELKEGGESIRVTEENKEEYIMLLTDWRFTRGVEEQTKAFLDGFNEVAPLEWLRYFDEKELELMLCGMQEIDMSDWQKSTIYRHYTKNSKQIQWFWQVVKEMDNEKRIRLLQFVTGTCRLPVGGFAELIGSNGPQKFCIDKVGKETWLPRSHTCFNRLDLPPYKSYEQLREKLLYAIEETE
Test: Naive Library Presenter Screening (phage, NGS), WWP2^HECT
Type: binding
Settings: for interaction data at Target Concentration 10: WWP2 target concentration 10 nM; for interaction data at Target Concentration 30: WWP2 target concentration 30 nM; for interaction data at Target Concentration 100: WWP2 target concentration 100 nM; for interaction data at Target Concentration 300: WWP2 target concentration 300 nM; for interaction data at Target Concentration 1000: WWP2 target concentration 1000 nM

Sequence | interaction data at Target Concentration 10 | interaction data at Target Concentration 30 | interaction data at Target Concentration 100 | interaction data at Target Concentration 300 | interaction data at Target Concentration 1000 (first column) | interaction data at Target Concentration 1000 (second column)
DPAVWDCRYAAWDCYTN (linker 7-14 via Phenylene(1,4-NHCOCH2)2 (inferred); not fully specified (C-terminus)) | 0 | 0 | 0 | 28 | 33 | 15
DPALIHCRAAADTCAFW (linker 7-14 via Phenylene(1,4-NHCOCH2)2; not fully specified (C-terminus)) | 87 | 318 | 384 | 608 | 419 | 565
DPAMWDCRYAALDCYMT (DPAMWDCRYAALDCYMT-NH2; linker 7-14 via Phenylene(1,4-NHCOCH2)2; N-terminus assumed; SMILES CSCC[C@H](NC(=O)[C@H](C)NC(=O)[C@@H]1CCCN1C(=O)[C@@H](N)CC(=O)O)C(=O)N[C@@H](Cc1c[nH]c2ccccc12)C(=O)N[C@@H](CC(=O)O)C(=O)N[C@H]1CSCC(=O)Nc2ccc(cc2)NC(=O)CSC[C@@H](C(=O)N[C@@H](Cc2ccc(O)cc2)C(=O)N[C@@H](CCSC)C(=O)N[C@H](C(N)=O)[C@@H](C)O)NC(=O)[C@H](CC(=O)O)NC(=O)[C@H](CC(C)C)NC(=O)[C@H](C)NC(=O)[C@H](C)NC(=O)[C@H](Cc2ccc(O)cc2)NC(=O)[C@H](CCCNC(=N)N)NC1=O) | 0 | 0 | 6 | 23 | 62 | 24
DPAAWDCRYAALACYIH (linker 7-14 via Phenylene(1,4-NHCOCH2)2 (inferred)) | 0 |  | 2 | 11 | 66 | 34
DPAVWECRWAAFQCWLD (linker 7-14 via Phenylene(1,4-NHCOCH2)2 (inferred); not fully specified (C-terminus)) | 0 | 0 | 88 | 86 | 97 | 107
DPANWDCQQAAWLCIIQ (DPANWDCQQAAWLCIIQ-NH2; linker 7-14 via Phenylene(1,4-NHCOCH2)2; N-terminus assumed; SMILES CC[C@H](C)[C@H](NC(=O)[C@@H]1CSCC(=O)Nc2ccc(cc2)NC(=O)CSC[C@H](NC(=O)[C@H](CC(=O)O)NC(=O)[C@H](Cc2c[nH]c3ccccc23)NC(=O)[C@H](CC(N)=O)NC(=O)[C@H](C)NC(=O)[C@@H]2CCCN2C(=O)[C@@H](N)CC(=O)O)C(=O)N[C@@H](CCC(N)=O)C(=O)N[C@@H](CCC(N)=O)C(=O)N[C@@H](C)C(=O)N[C@@H](C)C(=O)N[C@@H](Cc2c[nH]c3ccccc23)C(=O)N[C@@H](CC(C)C)C(=O)N1)C(=O)N[C@H](C(=O)N[C@@H](CCC(N)=O)C(N)=O)[C@@H](C)CC) | 0 | 0 | 0 | 8 | 7 | 27
DPALWECMTAADWCMFM (linker 7-14 via Phenylene(1,4-NHCOCH2)2; not fully specified (C-terminus)) | 1 | 24 | 17 | 18 | 28 | 32
DPALLHCMAAAQTCSFF (linker 7-14 via Phenylene(1,4-NHCOCH2)2; not fully specified (C-terminus)) | 0 | 47 | 26 | 37 | 59 | 123
DPAYHHCLAAADLCSFF | 59 | 97 | 107 | 147 | 101 | 141
DPALWECRNAAWQCWMH (linker 7-14 via Phenylene(1,4-NHCOCH2)2; not fully specified (C-terminus)) | 0 | 0 | 0 | 24 | 35 | 27
DPAQDTCRAAADTCAFF (DPAQDTCRAAADTCAFF-NH2; linker 7-14 via Phenylene(1,4-NHCOCH2)2; N-terminus assumed; SMILES C[C@@H]1NC(=O)[C@H](C)NC(=O)[C@H](CCCNC(=N)N)NC(=O)[C@@H](NC(=O)[C@@H](NC(=O)[C@H](CC(=O)O)NC(=O)[C@H](CCC(N)=O)NC(=O)[C@H](C)NC(=O)[C@@H]2CCCN2C(=O)[C@@H](N)CC(=O)O)[C@@H](C)O)CSCC(=O)Nc2ccc(cc2)NC(=O)CSC[C@@H](C(=O)N[C@@H](C)C(=O)N[C@@H](Cc2ccccc2)C(=O)N[C@@H](Cc2ccccc2)C(N)=O)NC(=O)[C@H]([C@@H](C)O)NC(=O)[C@H](CC(=O)O)NC(=O)[C@H](C)NC1=O) | 8 | 159 | 267 | 241 | 232 | 373

Further lines, results first:

interaction data at Target Concentration 10 | interaction data at Target Concentration 30 | interaction data at Target Concentration 100 | interaction data at Target Concentration 300 | interaction data at Target Concentration 1000 (first column) | interaction data at Target Concentration 1000 (second column) | Sequence
2 | 67 | 51 | 125 | 120 | 127 | DPAQNMCQAAADVCMFF (DPAQNMCQAAADVCMFF-NH2; linker 7-14 via Phenylene(1,4-NHCOCH2)2; N-terminus assumed; SMILES CSCC[C@H](NC(=O)[C@H](CC(N)=O)NC(=O)[C@H](CCC(N)=O)NC(=O)[C@H](C)NC(=O)[C@@H]1CCCN1C(=O)[C@@H](N)CC(=O)O)C(=O)N[C@H]1CSCC(=O)Nc2ccc(cc2)NC(=O)CSC[C@@H](C(=O)N[C@@H](CCSC)C(=O)N[C@@H](Cc2ccccc2)C(=O)N[C@@H](Cc2ccccc2)C(N)=O)NC(=O)[C@H](C(C)C)NC(=O)[C@H](CC(=O)O)NC(=O)[C@H](C)NC(=O)[C@H](C)NC(=O)[C@H](C)NC(=O)[C@H](CCC(N)=O)NC1=O)
1 | 0 | 12 | 60 | 40 | 75 | DPATWDCNVAAHRCWFL (linker 7-14 via Phenylene(1,4-NHCOCH2)2 (inferred); not fully specified (C-terminus))
0 | 0 | 0 | 6 | 23 | 15 | DPATWACINAAHNCWRN (DPATWACINAAHNCWRN-NH2; linker 7-14 via Phenylene(1,4-NHCOCH2)2 (inferred))
0 | 0 | 0 | 8 | 7 | 28 | DPAMWSCRYAAWECWVL (DPAMWSCRYAAWECWVL-NH2; linker 7-14 via Phenylene(1,4-NHCOCH2)2; N-terminus assumed; SMILES CSCC[C@H](NC(=O)[C@H](C)NC(=O)[C@@H]1CCCN1C(=O)[C@@H](N)CC(=O)O)C(=O)N[C@@H](Cc1c[nH]c2ccccc12)C(=O)N[C@@H](CO)C(=O)N[C@H]1CSCC(=O)Nc2ccc(cc2)NC(=O)CSC[C@@H](C(=O)N[C@@H](Cc2c[nH]c3ccccc23)C(=O)N[C@H](C(=O)N[C@@H](CC(C)C)C(N)=O)C(C)C)NC(=O)[C@H](CCC(=O)O)NC(=O)[C@H](Cc2c[nH]c3ccccc23)NC(=O)[C@H](C)NC(=O)[C@H](C)NC(=O)[C@H](Cc2ccc(O)cc2)NC(=O)[C@H](CCCNC(=N)N)NC1=O)
0 | 0 | 2 | 23 | 35 | 66 | DPATWDCQQAAHHCWVL (linker 7-14 via Phenylene(1,4-NHCOCH2)2 (inferred); not fully specified (C-terminus))
6 | 83 | 76 | 103 |  | 123 | DPARVNCHAAADTCFFF (linker 7-14 via Phenylene(1,4-NHCOCH2)2)
4 | 38 | 24 | 49 | 47 | 76 | DPALWHCLAAAETCAMF (linker 7-14 via Phenylene(1,4-NHCOCH2)2; not fully specified (C-terminus))
0 | 179 | 254 | 297 | 283 | 378 | DPAANYCEAAADTCQFF (linker 7-14 via Phenylene(1,4-NHCOCH2)2 (inferred))
